First the molecules themselves.
B1: Sema3A.3, furin processed variant of the Sema3A C-terminal domain (peptide)
chain: NTMDEFCEQVWKRDRKQRRQRPGHTPGNSNKWKHLQENKKGRNRRTHEFERAPR

“And” between values parts separate entries of the source, which are not always exact repeats. Equal entries are not always repeated. Bridges are numbered along the chain shown (N, C = ends). Roman numbers before positions name the chains, in order. Where no end group is shown, it is not given here.

The first experiment has as its target T1, Nrp1-b1b2 (residue 274 to 586) (UniProt O14786 274-586).
T1 sequence (looked up): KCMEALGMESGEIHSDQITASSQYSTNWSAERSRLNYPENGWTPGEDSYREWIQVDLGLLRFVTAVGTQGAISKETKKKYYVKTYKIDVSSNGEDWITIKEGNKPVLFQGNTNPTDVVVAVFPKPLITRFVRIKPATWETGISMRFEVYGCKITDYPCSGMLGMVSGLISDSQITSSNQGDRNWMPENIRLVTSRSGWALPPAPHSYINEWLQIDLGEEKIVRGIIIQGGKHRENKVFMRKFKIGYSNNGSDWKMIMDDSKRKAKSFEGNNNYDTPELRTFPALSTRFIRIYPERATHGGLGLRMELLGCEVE
Briefly: plate-based competition assay with alkaline phosphatase fused ligand.
Conditions: not given
As to NTMDEFCEQVWKRDRKQR [Sema3A.1, shortest furin processed variant of the Sema3A C-terminal domain], the IC50 worked out at 1100 nM. This lies in the single-digit micromolar range.
B1 displayed a half-maximal inhibitory concentration (IC50) of 27 nM.
Regarding GLIHQYCQGYWRHVPPSPREAPGAPRSPEPDQKKPRNRR (also: homodimer) [furin-processed C-terminal domain of Sema3F (C-furSema), homodimeric], the 50% inhibitory concentration (IC50) is 25 nM and 24 nM.
In turn, GLIHQYCQGYWRHVPPSPREAPGAPRSPEPDQKKPRNRA (also: homodimer, intermolecular disulfide Cys7-Cys7) [C-furSema R779A] registered a 50% inhibitory concentration (IC50) of 4500 nM.
The same measure, in the same setting: the result for GLIHQYSQGYWRHVPPSPREAPGAPRSPEPDQKKPRNRR [monomeric C-furSema^Mon] reads 1300 nM; that for NTMDEFCEQVWKRDRKQRRQRPGHTPGNSNKWKHLQENKKGRNRR [Sema3A.2, furin processed variant of the Sema3A C-terminal domain], 45 nM; that for CQGYWRHVPPSPREAPGAPRSPEPDQKKPRNRR [ΔN-C-furSema], 111 nM.

A further experiment concerns the target T2, Nrp1 (Nrp1-b1b2) / VEGF-A binding (Homo sapiens, UniProt O14786).
T2 sequence (O14786 274-586): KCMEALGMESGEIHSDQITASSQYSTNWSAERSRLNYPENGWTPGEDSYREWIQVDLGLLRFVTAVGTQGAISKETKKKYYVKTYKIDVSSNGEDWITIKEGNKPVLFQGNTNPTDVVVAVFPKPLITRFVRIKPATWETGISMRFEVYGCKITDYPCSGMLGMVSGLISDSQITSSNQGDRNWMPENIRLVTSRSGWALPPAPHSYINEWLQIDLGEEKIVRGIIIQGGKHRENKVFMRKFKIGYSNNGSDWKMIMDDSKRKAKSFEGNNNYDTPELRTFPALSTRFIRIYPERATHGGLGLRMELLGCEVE
Briefly: Plate-based inhibition of AP-VEGF-A binding to Nrp1. Conditions: comparison of IC50 values, in words.
As to “I: CQGYWRHVPPSPREAPGAPRSPEPDQKKPRNRR-OH / II: CQGYWRHVPPSPREAPGAPRSPEPDQKKPRNRR-OH (disulfide I:1-II:1) [ΔN-C-furSema]”, the “potency relative to C-furSema in inhibiting VEGF-A binding to Nrp1” value was “approximately five-fold less potent”.

The values are drawn from paper PMC3873856 (Biochemistry, 2013).
